These results are taken from patent US20030092037A1, “Elk1 phosphorylation related gene” (priority 2001, published 2003).

The subject of the experiment is MAP kinase cascade activation. The experiment can be described thus: Reporter activity reflecting MAP kinase cascade activation, corrected using an internal control (Elk1-GAL4 luciferase reporter in 293-EBNA cells). The format is cell-based, human. To be noted: for Reporter activity corrected with internal control, as a factor of null vector (S/B value): 293-EBNA cells, 24 hours; for Dependence of corrected reporter activity on amount of expression plasmid: plasmid 12.5 ng, 25 ng, 50 ng and 100 ng. The method, then: (in the presence of 5% CO2). […] The method used for introduction was in accordance with the attached protocol. After culturing for 24 hours at 37° C., reporter activity (firefly luciferase acitivity), which reflects MAP kinase cascade activation, and reporter activity being the internal control (sea pansy luciferase) were measured using Picagene Dual (purchased from Toyo Ink Manufacturing) in accordance with the manufacturer's instructions.
Luciferase activity was measured with Perkin Elmer's Wallac ARVOTMST 1420 MULTILABEL COUNTER.
Reporter activity where an expression plasmid comprising the above gene was introduced, which reflects MAP kinase cascade activation corrected with internal control reporter activity, is shown in Table 1, which is expressed as a factor of the same reporter activity where a null vector was introduced (S/B value).

Where [1] appears, read: 12.5 ng/well expression plasmid.

Numbering of substitutions follows the chain as printed.

B1: 132 (protein, listed as Mus musculus)
chain: MAGRTMQAARCPTDELSLSNCAVVNEKDFQSGQHVMVRTSPNHKHIFTLRTHPSVVPGCIAFSLPQRKWAGLSIGQDIEVALYSFDKAKQCIGTMTIEIDFLQKKNIDSNPYDTDKMAAEFIQQFNNQAFSVGQQLVFSFNDKLFGLLVKDIEAMDPSILKGEPASGKRQKIEVGLVVGNSQVAFEKAENSSLNLIGKAKTKENRQSIINPDWNFEKMGIGGLDKGFSDIFRRAFASRVFPPEIVEQMGCKHVRGILLYGPPGCGKTLLARQIGKMLNAREPKVVNGPEILNKYVGESEANIRKLFADAEEEQRRLGANSGLHIIIFDEIDAICKQRGSMAGSTGVHDTVVNQLLSKIDGVEQLNNILVIGMTNRPDLIDEALLRPGRLEVKMEIGLPDEKGRLQILHIHTARMRGHQLLSADVDIKELAVETKNFSGAELEGLVRAAQSTAMNRHIKASTKVEVDMEKAESLQVTRGDFLASLENDIKPAFGTNQEDYASYIMNGIIKWGDPVTRVLDDGELLVQQTKNSDRTPLVSVLLEGPPHSGKTALAAKIAEESNFPFIKICSPDKMIGFSETAKCQAMKKIFDDAYKSQLSCVVVDDIERLLDYVPIGPRFSNLVLQALLVLLKKAPPQGRKLLIIGTTSRKDVLQEMEMLNAFSTTIHVPNIATGEQLLEALELLGNFKDKERTTIAQQVKGKKVWIGIKKLLMLIEMSLQMDPEYRVRKFLALMREEGASPLDFD
Take B1: the “Dependence of corrected reporter activity on amount of expression plasmid” value (“Dependence” below) is on record as “increases that were dependent on the amount of expression plasmid”. For the same molecule, the “Reporter activity corrected with internal control, as a factor of null vector (S/B value)” value (from here on “Reporter activity corrected”) under setting [1] was 5.6. Further, under “25 ng/well expression plasmid”, the “Reporter activity corrected” value is 10.1. For the same molecule, the “Reporter activity corrected” value (50 ng/well expression plasmid) is on record as 16.6.

B2: 150 (protein, listed as Homo sapiens)
chain: MSSGKSARYNRFSGGPSNLPTPDVTTGTRMETTFGPAFSAVTTITKADGTSTYKQHCRTPSSSSTLAYSPRDEEDSMPPISTPRRSDSAISVRSLHSESSMSLRSTFSLPEEEEEPEPLVFAEQPSVKLCCQLCCSVFKDPVITTCGHTFCRRCALKSEKCPVDNVKLTVVVNNIAVAEQIGELFIHCRHGCRVAGSGKPPIFEVDPRGCPFTIKLSARKDHEGSCDYRPVRCPNNPSCPPLLRMNLEAHLKECEHIKCPHSKYGCTFIGNQDTYETHLETCRFEGLKEFLQQTDDRFHEMHVALAQKDQEIAFLRSMLGKLSEKIDQLEKSLELKFDVLDENQSKLSEDLMEFRRDASMLNDELSHINARLNMGILGSYDPQQIFKCKGTFVGHQGPVWCLCVYSMGDLLFSGSSDKTIKVWDTCTTYKCQKTLEGHDGIVLALCIQGCKLYSGSADCTIIVWDIQNLQKVNTIRAHDNPVCTLVSSHNVLFSGSLKAIKVWDIVGTELKLKKELTGLNHWVRALVAAQSYLYSGSYQTIKIWDIRTLDCIHVLQTSGGSVYSIAVTNHHIVCGTYENLIHVWDIESKEQVRTLTGHVGTVYALAVISTPDQTKVFSASYDRSLRVWSMDNMICTQTLLRHQGSVTALAVSRGRLFSGAVDSTVKVWTC
For B2, the “Dependence” value is recorded as “increases that were dependent on the amount of expression plasmid”. Besides, the “Reporter activity corrected” value under setting [1] was determined as 6.7. Also, the “Reporter activity corrected” value (25 ng/well expression plasmid) was determined as 2.8. In addition, the “Reporter activity corrected” value (50 ng/well expression plasmid) was 1.7.

B3: 146 (protein, listed as Homo sapiens)
chain: MNHIVQTFSPVNSGQPPNYEMLKEEQEVAMLGAPHNPAPPTSTVIHIRSETSVPDHVVWSLFNTLFMNTCCLGFIAFAYSVKSRDRKMVGDVTGAQAYASTAKCLNIWALILGIFMTILLVIIPVLVVQAQR
With B3, the “Dependence” value was “increases that were dependent on the amount of expression plasmid”. Moreover, the “Reporter activity corrected” value (25 ng/well expression plasmid) amounted to 3.5. The “Reporter activity corrected” value (50 ng/well expression plasmid) is on record as 5.6. Moreover, under “100 ng/well expression plasmid”, the “Reporter activity corrected” value amounted to 8.8.

B4: 148 (protein, listed as Homo sapiens)
chain: B3 chain with V121I
For B4, the “Dependence” value is “increases that were dependent on the amount of expression plasmid”. Besides, the “Reporter activity corrected” value (25 ng/well expression plasmid) is listed as 1.6. Besides, the “Reporter activity corrected” value (50 ng/well expression plasmid) is 3.4. Also, where the note is “100 ng/well expression plasmid”, the “Reporter activity corrected” value worked out at 5.0.

B5: 122 (protein, listed as Mus musculus)
chain: MAPAGCGCGCSGSLGAAVVRPLLLLLGALACVRATEHYSPLSLLKQELQHRQQQEAPAGGGCPQSGDWADQYPECESSFLNFHESDCELRGSAPCDSLLSLNTEKILSQAKSIAEQKRFPFATDNDSTNEELAIAYVLVGSGLYDEAIRHFSTMLQEAIEAFKEALKQKVDFIDAYKSLGQAYRELGNFDAATESFQKALLLNQNHVQTQQLRGMMLYHHGSLQEALKNFKRCLQLEPYNELCQYMKGLSHVAMGQFYEGIKAQTKVMLNDPLPGQKASPEYLRVKYLREYSRYLHAHLDTPLTEYNIDSDLPGSFKDHWAKNLPFLIDGYEEQPGLQPHIRDVLHQNFEGYKPEVQELICVADRLGSLMQYETPGFLPNKRIHRAMGLAALEVMQAVHRTWTNSKVRMNGKTRLLQWRDMFDIAVKWRRIADPDQPVLWLDQMPAPSLSRGFNNHINLIRGQVINMRYLEYFEKILHFIKDRILVYHGANNPKGLLEVREALEKVHKVEDLLPIMKQFNTKTKDGFTVNTKVPSLKDQGKEYDGFTITITGDKVGNILFSVETQTTEERTQLYHAEIDALYKDLTAKGKVLTLSAEFGEADAVCNLILSLVYYFYNLMPLSRGSSVIAYSVIVGALMASGKEVAGKIPKGKLVDFEAMTAPGSEAFSKIAKSWMNLKSISPSYKTLPSVSETFPTLRSMIEVLNTDSTPRCLKKL
For B5, the “Dependence” value is recorded as “increases that were dependent on the amount of expression plasmid”. Moreover, the “Reporter activity corrected” value under setting [1] is on record as 1.8. Moreover, under “25 ng/well expression plasmid”, the “Reporter activity corrected” value is given as 2.9. Further, where the note is “50 ng/well expression plasmid”, the “Reporter activity corrected” value stood at 6.8.

B6: 152 (protein, listed as Homo sapiens)
chain: MAPAGCCCCCCFWGGAVAAAGAARRVLLLLLLGVLSAGLRPGALATEHYSPLSLLKQELQHRQQQEAPAGGGGCSPQSGDWGDQYSAECGESSFLNFHDSDCEPKGSSPCDSLLSLNTEKILSQAKSIAEQKRFPFATDNDSTNEELAIAYVLIGSGLYDEAIRHFSTMLQEEPDLVSAIYGRGIAYGKKGLHDIKNAELALFELSRVITLEPDRPEVFEQRAEILSPLGRINEAVNDLTKAIQLQPSARLYRHRGTLYFISEDYATAHEDFQQSLELNKNQPIAMLYKGLTFFHRGLLKEAIESFKEALKQKVDFIDAYKSLGQAYRELGNFEAATESFQKALLLNQNHVQTLQLRGMMLYHHGSLQEALKNFKRCLQLEPYNEVCQYMKGLSHVAMGQFYEGIKAQTKVMLNDPLPGQKASPEYLKVKYLREYSRHLHAHLDTPLTEYNIDVDLPGSFKDHWAKNLPFLIEDYEEQPGLQPHIKDVLHQNFESYKPEVQELICVADRLGSLMQYETPGFLPNKRIHRAMGLAALEVMQAVQRTWTNSKVRMNGKTRLMQWRDMFDIAVKWRRIADPDQPVLWLDQMPARSLSRGFNNHINLIRGQVINMRYLEYFEKILHFIKDRILVYHGANNPKGLLEVREALEKVHKVEDLLPIMKQFNTKTKDGFTVNTKVPSLKDQGKEYDGFTITITGDKVGNILFSVETQTTEERTQLYHAEIDALYKDLTAKGKVLILSSEFGEADAVCNLILSLVYYFYNLMPLSRGSSVIAYSVIVGALMASGKEVAGKIPKGKLVDFEAMTAPGSEAFSKVAKSWMNLKSISPSYKTLPSVSETFPTLRSMIEVLNTDSSPRCLKKL
Turning to B6, the “Dependence” value was “increases that were dependent on the amount of expression plasmid”.

B7: 154 (protein, listed as Homo sapiens)
chain: MAPAGCCCCCCFWGGAVAAAGAARRVLLLLLLGVLSARLRPGALATEHYSPLSLLKQELQHRQQQEAPAGGGGCSPQSGDWGDQYSAECGESSFLNFHDSDCEPKGSSPCDSLLSLNTEKILSQAKSIAEQKRFPFATDNDSTNEELAIAYVLIGSGLYDEAIRHFSTMLQILSPLGRINEAVNDLTKAIQLQPSARLYRHRGTLYFISEDYATAHEDFQQSLELNKNQPIAMLYKGLTFFHRGLLKEAIESFKEALKQKVDFIDAYKSLGQAYRELGNFEAATESFQKALLLNQNHVQTLQLRGMMLYHHGSLQEALKNFKRCLQLEPYNEVCQYMKGLSHVAMGQFYEGIKAQTKVMLNDPLPGQKASPEYLKVKYLREYSRYLHAHLDTPLTEYNIDVDLPGSFKDHWAKNLPFLIEDYEEQPGLQPHIKDVLHQNFESYKPEVQELICVADRLGSLMQYETPGFLPNKRIHRAMGLAALEVMQAVQRTWTNSKVRMNGKTRLMQWRDMFDIAVKWRRIADPDQPVLWLDQMPARSLSRGFNNHINLIRGQVINMRYLEYFEKILHFIKDRILVYHGANNPKGLLEVREALEKVHKVEDLLPIMKFNTKTKDGFTVNTKVPSLKDQGKEYDGFTITITGDKVGNILFSVETQTTEERTQLYHAEIDALYKDLTAKGKVLILSSEFGEADAVCNLILSLVYYFYNLMPLSRGSSVIAYSVIVGALMASGKEVAGKIPKGKLVDFEAMTAPGSEAFSKVAKSWMNLKSISPSYKTLPSVSETFPTLRSMIEVLNTDSSPRCLKKL
Regarding B7, the “Dependence” value is “increases that were dependent on the amount of expression plasmid”.
